# Source: patent US20190241662A1 (ADAGENE, published 2019)
# Substitutions are numbered along the chain they refer to.
# T1: human CD95 on HEK293F cells (human, UniProt P25445 26-335)
# T1 construct: whole, on cells
# T1 sequence (looked up): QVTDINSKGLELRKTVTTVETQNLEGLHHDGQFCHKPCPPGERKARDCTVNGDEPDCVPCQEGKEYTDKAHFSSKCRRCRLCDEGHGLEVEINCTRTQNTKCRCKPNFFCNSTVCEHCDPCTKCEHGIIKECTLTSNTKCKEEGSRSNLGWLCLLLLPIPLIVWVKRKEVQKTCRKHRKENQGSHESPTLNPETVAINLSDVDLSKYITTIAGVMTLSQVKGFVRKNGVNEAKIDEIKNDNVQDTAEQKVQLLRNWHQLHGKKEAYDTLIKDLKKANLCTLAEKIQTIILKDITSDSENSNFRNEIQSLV
# T2: human Tim3 on HEK293F cells (human, UniProt Q8TDQ0 22-301)
# T2 construct: whole, on cells
# T2 sequence (looked up): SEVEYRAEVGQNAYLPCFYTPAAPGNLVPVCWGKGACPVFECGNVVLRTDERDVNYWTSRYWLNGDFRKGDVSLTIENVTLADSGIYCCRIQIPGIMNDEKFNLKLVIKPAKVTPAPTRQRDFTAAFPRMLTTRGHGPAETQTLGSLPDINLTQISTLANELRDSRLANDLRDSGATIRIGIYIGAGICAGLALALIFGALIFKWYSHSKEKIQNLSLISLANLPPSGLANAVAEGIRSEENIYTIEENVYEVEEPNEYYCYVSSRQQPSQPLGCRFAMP
# T3: human LAG3 on HEK293F cells (human, UniProt P18627 23-525)
# T3 construct: whole, on cells
# T3 sequence (looked up): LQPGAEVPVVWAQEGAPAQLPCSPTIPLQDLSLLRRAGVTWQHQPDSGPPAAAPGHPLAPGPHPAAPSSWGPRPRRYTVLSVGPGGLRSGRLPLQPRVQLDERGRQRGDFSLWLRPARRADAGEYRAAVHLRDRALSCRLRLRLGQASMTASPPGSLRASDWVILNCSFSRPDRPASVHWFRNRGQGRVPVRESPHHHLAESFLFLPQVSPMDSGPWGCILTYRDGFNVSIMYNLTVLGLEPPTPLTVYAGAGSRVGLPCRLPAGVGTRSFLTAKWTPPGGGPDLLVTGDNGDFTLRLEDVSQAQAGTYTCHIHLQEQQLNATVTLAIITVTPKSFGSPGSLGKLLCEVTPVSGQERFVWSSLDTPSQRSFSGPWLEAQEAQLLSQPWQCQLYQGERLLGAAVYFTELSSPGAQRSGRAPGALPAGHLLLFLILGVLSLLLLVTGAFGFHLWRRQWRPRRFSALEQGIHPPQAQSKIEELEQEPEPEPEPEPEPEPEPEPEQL
# B1: TY21591 (antibody, V domains shown)
# VH: EVQLVESGGGLVQPGGSLRLSCAASGFSLSTGGVAVSWIRQAPGKGLEWIGEIYHSGSTYYSPSLKSRVTISRDNSKNTLYLQLNSLRAEDTAVYYCARRIATATYFDYWGQGTLVTVSS
# VL: DIQLTQSPSSLSASVGDRVTITCRASQTVFSRYLAWYQQKPGKAPKLLIYDASNRATGIPSRFSGSGSGTDFTLTISSLQPEDFATYYCQQSYYWPPWTFGQGTKVEIK
# notes: human IgG1 (hIgG1) from Fab hit B15756
# B2: TY21687 (antibody, V domains shown)
# VH: EVQLVESGGGLVQPGGSLRLSCAASGFTFSGYAIHWVRQAPGKGLEWIGIISPSGGGTKYAQKFQGRVTISRDNSKNTLYLQLNSLRAEDTAVYYCARHPFAYWGQGTLVTVSS
# VL: DIQLTQSPSSLSASVGDRVTITCRASQSVDFYGISFLDWYQQKPGKAPKLLIYDASNRATGIPSRFSGSGSGTDFTLTISSLQPEDFATYYCQQYVSSPPEYTFGQGTKVEIK
# notes: human IgG1 (hIgG1) from Fab hit B15700
# B3: TY21585 (antibody, V domains shown)
# VH: EVQLVESGGGLVQPGGSLRLSCAASGFTFSDYAIHWVRQAPGKGLEWIGIISPSSGSTNYAQKFQGRVTISRDNSKNTLYLQLNSLRAEDTAVYYCARDIHSGSSGYYYGFDVWGQGTLVTVSS
# VL: B2 VL with Q27E, Y32F, D38A, Q94H, V96T, E101V
# notes: human IgG1 (hIgG1) from Fab hit B15709
# What was measured:
# Test in all cases: flow cytometry, transfected HEK293F cells, 100 nM antibody [Cont.]
# [1] = target: T1, human CD95 on HEK293F cells
# Protocol: (§1) Antibody selectivity was next examined. Human CTLA4, PD1, LAG3, Tim3, B7H3, CD95, TNFR1, OX40, CD40, PD-L1, BLTA, VISTA, PDL2, ICOS and B7H4 were transiently overexpressed on the surface of HEK293F cells. Transfected cells were washed in pre-chilled 1×PBSA buffer (1.76 mM KH2PO4, 10.14 mM Na2HPO4.12H2O, 2.68 mM KCl, 136.89 mM NaCl and 1% BSA), then incubated with 100 nM test antibodies for 1 hour on ice. Cells were washed once with staining buffer, and Alexa Fluor® 647 conjugated mouse anti-human FC antibodies were added and incubated for 30 minutes on ice, protected from light. Samples were washed once with staining buffer prior to analysis by flow cytometry.
# [2] = target: T2, human Tim3 on HEK293F cells
# Protocol: as §1
# [3] = target: T3, human LAG3 on HEK293F cells
# Protocol: as §1
# [4] = target: T4, human CD40 on HEK293F cells (human, UniProt P25942 21-277)
# T4 construct: whole, on cells
# Protocol: as §1
# T4 sequence (P25942 21-277): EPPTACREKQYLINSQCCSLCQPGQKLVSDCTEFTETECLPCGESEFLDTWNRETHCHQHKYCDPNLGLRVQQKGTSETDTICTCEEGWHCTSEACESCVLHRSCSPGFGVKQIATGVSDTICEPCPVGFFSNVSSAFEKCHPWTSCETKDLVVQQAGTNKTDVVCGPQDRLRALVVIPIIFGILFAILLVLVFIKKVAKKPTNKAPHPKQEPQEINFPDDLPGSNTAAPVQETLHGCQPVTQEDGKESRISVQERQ
binder,measurement,setting,value
B1,% of cells in upper right quadrant (Q2),[1],0.22
same,Mean,[1],5570
B2,% of cells in upper right quadrant (Q2),[2],1.85%
same,% of cells in upper right quadrant (Q2),[3],1.31%
B3,% of cells in upper right quadrant (Q2),[4],0.95
same,Mean,[4],8270
